{"source": "patent US10314894B2", "about": "“Treatment of cardio-renal disease using PCSK6” (THE CLEVELAND CLINIC FOUNDATION, priority 2014, dated 2019)", "molecules": {"B1": {"name": "proprotein convertase subtilisin/kexin-6 (protein, listed as Homo sapiens)", "chain": "MPPRAPPAPGPRPPPRAAAATDTAAGAGGAGGAGGAGGPGFRPLAPRPWRWLLLLALPAACSAPPPRPVYTNHWAVQVLGGPAEADRVAAAHGYLNLGQIGNLEDYYHFYHSKTFKRSTLSSRGPHTFLRMDPQVKWLQQQEVKRRVKRQVRSDPQALYFNDPIWSNMWYLHCGDKNSRCRSEMNVQAAWKRGYTGKNVVVTILDDGIERNHPDLAPNYDSYASYDVNGNDYDPSPRYDASNENKHGTRCAGEVAASANNSYCIVGIAYNAKIGGIRMLDGDVTDVVEAKSLGIRPNYIDIYSASWGPDDDGKTVDGPGRLAKQAFEYGIKKGRQGLGSIFVWASGNGGREGDYCSCDGYTNSIYTISVSSATENGYKPWYLEECASTLATTYSSGAFYERKIVTTDLRQRCTDGHTGTSVSAPMVAGIIALALEANSQLTWRDVQHLLVKTSRPAHLKASDWKVNGAGHKVSHFYGFGLVDAEALVVEAKKWTAVPSQHMCVAASDKRPRSIPLVQVLRTTALTSACAEHSDQRVVYLEHVVVRTSISHPRRGDLQIYLVSPSGTKSQLLAKRLLDLSNEGFTNWEFMTVHCWGEKAEGQWTLEIQDLPSQVRNPEKQGKLKEWSLILYGTAEHPYHTFSAHQSRSRMLELSAPELEPPKAALSPSQVEVPEDEEDYTAQSTPGSANILQTSVCHPECGDKGCDGPNADQCLNCVHFSLGSVKTSRKCVSVCPLGYFGDTAARRCRRCHKGCETCSSRAATQCLSCRRGFYHHQEMNTCVTLCPAGFYADESQKNCLKCHPSCKKCVDEPEKCTVCKEGFSLARGSCIPDCEPGTYFDSELIRCGECHHTCGTCVGPGREECIHCAKNFHFHDWKCVPACGEGFYPEEMPGLPHKVCRRCDENCLSCAGSSRNCSRCKTGFTQLGTSCITNHTCSNADETFCEMVKSNRLCERKLFIQFCCRTCLLAG", "modifications": "C-terminal FLAG tag"}}, "target": "T1, corin variant T555I/Q568P (Homo sapiens, UniProt Q9Y5Q5, Q568P/T555I)", "T1 construct": "expressed in transfected cells; host or cells: HEK293", "T1 sequence (Q9Y5Q5 1-1042 T555I/Q568P)": "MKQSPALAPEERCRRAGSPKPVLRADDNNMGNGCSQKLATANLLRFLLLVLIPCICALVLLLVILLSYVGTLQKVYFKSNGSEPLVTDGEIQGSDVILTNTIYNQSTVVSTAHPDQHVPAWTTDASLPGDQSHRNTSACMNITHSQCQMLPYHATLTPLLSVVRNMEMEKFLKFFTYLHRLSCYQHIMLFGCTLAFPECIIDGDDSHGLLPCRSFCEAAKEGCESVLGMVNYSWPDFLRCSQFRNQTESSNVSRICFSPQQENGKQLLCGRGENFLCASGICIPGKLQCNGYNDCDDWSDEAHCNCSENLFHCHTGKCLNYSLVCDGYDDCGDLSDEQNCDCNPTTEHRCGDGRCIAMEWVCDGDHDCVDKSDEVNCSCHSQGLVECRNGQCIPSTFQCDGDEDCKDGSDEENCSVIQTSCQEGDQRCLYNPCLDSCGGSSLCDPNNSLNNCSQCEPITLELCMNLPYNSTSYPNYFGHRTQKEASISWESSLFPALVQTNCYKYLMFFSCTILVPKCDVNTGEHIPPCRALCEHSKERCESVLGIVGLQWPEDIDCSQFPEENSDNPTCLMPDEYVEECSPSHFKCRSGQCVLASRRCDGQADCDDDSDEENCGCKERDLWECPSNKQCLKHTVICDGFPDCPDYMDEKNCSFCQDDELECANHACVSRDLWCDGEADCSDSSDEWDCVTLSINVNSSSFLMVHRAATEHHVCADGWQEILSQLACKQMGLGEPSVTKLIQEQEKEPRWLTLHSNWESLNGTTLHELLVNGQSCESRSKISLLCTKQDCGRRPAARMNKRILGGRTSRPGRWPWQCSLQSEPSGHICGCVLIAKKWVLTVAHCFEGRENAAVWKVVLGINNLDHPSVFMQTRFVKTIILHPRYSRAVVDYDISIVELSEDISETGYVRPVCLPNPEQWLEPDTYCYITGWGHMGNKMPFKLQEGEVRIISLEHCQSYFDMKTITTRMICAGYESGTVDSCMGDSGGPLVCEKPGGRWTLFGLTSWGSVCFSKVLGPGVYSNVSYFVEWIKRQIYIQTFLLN", "assay": "PCSK6-mediated corin activation in HEK293 cells, corin variant T555I/Q568P", "assay_type": "cell-based", "conditions": "corin T555I/Q568P mutant, Western, densitometry", "from_the_text": "Plasmids expressing human corin WT and mutants R801A, S985A, T555I, Q568P, T555I/Q568P, K317E, S472G and R539C were reported previously. Dong, N. et al., J Biol Chem 289, 17909-17916 (2014); Knappe et al., J Biol Chem 278, 52363-52370 (2003); Wu et al., J Biol Chem 277, 16900-16905. (2002). Plasmids expressing human PCSK1-9 were made by cloning respective cDNAs into pcNDA3.1 vector. Recombinant corin and PCSK proteins encoded by these plasmids contained a C-terminal V5 or flag tag for protein detection in Western blotting.\nHEK293 and HL-1 cells were transfected with corin or PCSK6 expression plasmids. After 48-72 h, cells were lysed in a buffer containing 25 mM Tris-HCl, pH 7.4, 150 mM NaCl, 1 mM EDTA, 1% (v/v) NP-40, and 1% (v/v) protease inhibitor cocktail. Recombinant corin and PCSK6 proteins were immunoprecipitated with an anti-V5 or anti-flag antibody. Western blotting was carried out to analyze corin expression and activation or PCSK6 expression with or without reducing agents. Percentage of corin activation (corin-p vs. corin fragments) was quantified by densitometric analysis of Western blots.", "data": [{"molecule": "B1", "values": [{"measurement": "PCSK6-mediated corin activation, reduction vs. WT (in words)", "result": "markedly reduced"}]}]}
